First the molecules themselves.
B1: CPEB3 Ribozyme (parent)
chain: GGGGGCCACAGCAGAAGCGUUCACGUCGCGGCCCCUGUCAGAUUCUGGUGAAUCUGCGAAUUCUGCUGU

This data set covers variants of B1. Kind of data set: self-cleavage, relative activity (ratio to wild type); higher = more cleavage; co-transcriptional.
As for C18A U64A, the self-cleavage worked out at 0.108.
For C18A U64C, the self-cleavage came to 0.14.
Consider G17C C57G, for which the self-cleavage is 0.0859.
The result for A16G G50C reads 0.896; that for A16G G50A, 0.915.
As to G17U U46G, the self-cleavage came to 0.599.
With G17U U46A, the self-cleavage stood at 0.624.
As for C18A U26G, the self-cleavage came to 0.118.
The result for C18A U26C reads 0.17.
With A16G G17C, the self-cleavage was 0.131.
For the variant A16U A23C, the self-cleavage came out at 0.701.
Turning to A16U U44G, the self-cleavage is 0.767.
Consider G17U G48A, for which the self-cleavage came out at 0.748.
Turning to C18A U36G, the self-cleavage came to 0.145.
In the case of A16G U49C it was 0.854.
The result for A16G U49A reads 0.598.
In the case of C18A U38G, the self-cleavage amounted to 0.212.
In the case of A16U C57A it was 0.293; in that of C18G G19C, 0.0934.
Regarding A16U U55A, the self-cleavage amounted to 0.624.
A16U U55C: the self-cleavage is 0.539.
As to A16U G41A, the self-cleavage was 0.411.
As for A16U G41U, the self-cleavage was found to be 0.497.
Consider G17A A60G, for which the self-cleavage turned out to be 0.202.
Take G17A A60C: the self-cleavage amounted to 0.189.
As to A16G U36A, the self-cleavage was determined as 0.179.
With A16G U36G, the self-cleavage was 0.259.
A16U C22G: the self-cleavage was found to be 0.161.
The result for A16U C22U reads 0.168; that for C18A C24G, 0.186.
As for G17U A59C, the self-cleavage came to 0.179.
For the variant G17A C18U, the self-cleavage worked out at 0.122.
With G17A C35U, the self-cleavage came out at 0.345.
Turning to C18A A60C, the self-cleavage turned out to be 0.0911.
In the case of C18A A60G, the self-cleavage is 0.195.
As to C18A U55C, the self-cleavage was found to be 0.21.
On to G17C C18G, for which the self-cleavage stood at 0.148.
For the variant G17C C18A, the self-cleavage came to 0.118.
C18A G19A: the self-cleavage turned out to be 0.135.
Regarding C18A C57G, the self-cleavage came to 0.114.
In the case of C18A C57U it was 0.157.
For A16U A42U, the self-cleavage turned out to be 0.82.
Regarding A16U G50A, the self-cleavage is 0.884.
A16U G50C: the self-cleavage was 0.762.
With G17A C63U, the self-cleavage was determined as 0.313.
The result for G17C U21A reads 0.116; that for G17A C45U, 0.463.
On to C18A G41A, for which the self-cleavage was determined as 0.156.
Take C18A A40C: the self-cleavage worked out at 0.197.
The result for A16U A40U reads 0.415.
With A16U A40C, the self-cleavage is 0.267.
As for G17U C66A, the self-cleavage turned out to be 0.239.
In the case of G17U C66U it was 0.412.
For A16U G25U, the self-cleavage stood at 0.134.
The result for A16U G25A reads 0.206; that for G17U A23U, 0.714; that for G17U G65C, 0.218.
Turning to C18A G68U, the self-cleavage stood at 0.264.
In the case of C18A U43C, the self-cleavage came out at 0.161.
As to A16U C29U, the self-cleavage was 0.117.
As to C18A G48A, the self-cleavage was 0.227.
The result for C18A G48C reads 0.146.
Consider G17U C32U, for which the self-cleavage amounted to 0.514.
In the case of G17U C32G it was 0.135; in that of G17U G58A, 0.343.
For the variant G17C U38A, the self-cleavage was 0.155.
In the case of C18A U44C it was 0.106.
In the case of A16G G56U it was 0.634; in that of G17A U20G, 0.098; in that of G17A U20A, 0.0639.
Regarding A16G U69C, the self-cleavage came out at 1.08.
For G17U G47U, the self-cleavage is 0.661.
As to G17A U62A, the self-cleavage is 0.193.
The result for A16G U64C reads 0.513.
A16U A59G: the self-cleavage stood at 0.909.
In the case of A16U A59C it was 0.427; in that of C18A U20G, 0.0591; in that of C18A U20A, 0.193.
Regarding G17A U61C, the self-cleavage came to 0.264.
Turning to G17A U61A, the self-cleavage amounted to 0.231.
Consider G17C C63A, for which the self-cleavage turned out to be 0.162.
In the case of G17A C24U it was 0.142.
As to G17U A52U, the self-cleavage was found to be 0.429.
Take G17U C57G: the self-cleavage was 0.16.
As to G17U C57A, the self-cleavage was found to be 0.192.
For the variant G17C C29U, the self-cleavage came to 0.199.
The result for G17C C29G reads 0.931; that for G17C U20C, 0.157.
For the variant G17C G37U, the self-cleavage was found to be 0.107.
In the case of G17U G19C, the self-cleavage was determined as 0.16.
Consider G17A U46G, for which the self-cleavage worked out at 0.591.
Turning to G17A U46A, the self-cleavage worked out at 0.634.
Take A16U A51C: the self-cleavage is 0.71.
For the variant G17C U67A, the self-cleavage was 0.204.
Take C18A U46C: the self-cleavage amounted to 0.228.
The result for G17A C33A reads 0.21; that for G17A C33G, 0.188; that for G17C G50C, 0.111.
G17C C22U: the self-cleavage was 0.145.
For the variant A16U U21C, the self-cleavage was 0.322.
The result for A16U U21G reads 0.294; that for G17A G56U, 0.178.
Consider G17A G56C, for which the self-cleavage was found to be 0.238.
Take G17A G56A: the self-cleavage was 0.234.
C18G G37A: the self-cleavage was 0.119.
As for C18A G25A, the self-cleavage was found to be 0.163.
The result for C18G C39U reads 0.196.
For C18G C39G, the self-cleavage was 0.101.
The result for C18G C39A reads 0.184; that for C18G C24G, 0.107.
As for C18G C24U, the self-cleavage is 0.106.
G17A A51U: the self-cleavage was found to be 0.433.
Take G17A C32A: the self-cleavage was 0.164.
Turning to G17U U64A, the self-cleavage stood at 0.201.
For the variant G17U U64G, the self-cleavage was found to be 0.183.
Consider G17A C27U, for which the self-cleavage is 0.172.
G17A C27A: the self-cleavage is 0.126.
The result for G17A C27G reads 0.134; that for C18A C54A, 0.162.
In the case of C18A A52C, the self-cleavage was found to be 0.152.
On to G17U C45A, for which the self-cleavage stood at 0.447.
Regarding G17C C32G, the self-cleavage amounted to 0.0951.
As to G17U U43A, the self-cleavage turned out to be 0.218.
On to G17U U43G, for which the self-cleavage came to 0.163.
On to A16U C24G, for which the self-cleavage was 0.141.
The result for A16U C24U reads 0.337; that for C18G C35A, 0.0628; that for C18A C34U, 0.16.
The result for C18A C34G reads 0.14; that for G17A G30C, 0.161; that for C18G G56A, 0.107.
C18G G56C: the self-cleavage worked out at 0.101.
The result for A16G G65A reads 0.622.
In the case of A16G G65U, the self-cleavage came to 0.571.
Turning to A16G G47C, the self-cleavage turned out to be 1.02.
Take A16G G47A: the self-cleavage was 0.933.
For C18A U53A, the self-cleavage is 0.188.
Consider C18A U53G, for which the self-cleavage came to 0.17.
For the variant G17U G30A, the self-cleavage came out at 0.184.
Consider C18A G37C, for which the self-cleavage was found to be 0.213.
For the variant A16U C32A, the self-cleavage stood at 0.491.
Regarding G17A G31A, the self-cleavage is 0.158.
For the variant A16U C54A, the self-cleavage turned out to be 0.637.
The result for A16U C54U reads 0.895.
In the case of A16U C54G it was 0.662; in that of A16G U38G, 0.143.
For G17U G28U, the self-cleavage was determined as 0.134.
Take G17C A59G: the self-cleavage turned out to be 0.122.
In the case of G17C A59C it was 0.104.
As to A16U G65U, the self-cleavage was 0.4.
For the variant A16U G65C, the self-cleavage stood at 0.462.
Regarding G17U A42G, the self-cleavage is 0.353.
The result for A16G G68A reads 1.02; that for G17C, 0.166; that for G17A, 0.592.
The result for G17U reads 0.643.
In the case of G17A U67C, the self-cleavage turned out to be 0.491.
On to A16U G48U, for which the self-cleavage amounted to 0.907.
For G17A G47U, the self-cleavage turned out to be 0.562.
Take C18A G56U: the self-cleavage stood at 0.133.
Turning to C18A G56A, the self-cleavage was 0.156.
G17C U61A: the self-cleavage came out at 0.132.
For C18G G28A, the self-cleavage turned out to be 0.133.
The result for G17A U69A reads 0.703.
For the variant G17U C33G, the self-cleavage is 0.224.
As for C18A G65C, the self-cleavage was found to be 0.217.
The result for A16G G19C reads 0.158.

The values are drawn from the RNAGym collection of RNA variant scans (doi:10.7554/elife.80360).
